Data on one substance can be found in paper PMC12578939.

The target of this assay is microtubules polymerised from bovine brain tubulin (bovine) (UniProt Q6B856). The assay can be described thus: TIRF microscopy of binding to immobilised microtubules.

As for “augmin octamer lacking the N-terminal MTBR of Haus8 (residues 1-154) (from UniProt Q0IHJ3;Q6DCY9) (complex)”, the reduction in MT binding against wildtype augmin came out at 50%.
